Consider one substance from article PMC9504981.

For the experiment, the target named is 10×Histidine-tagged amino acids 1-416 of potato virus X RNA-dependent RNA polymerase, 10×His-MET_(1-416) (potato virus X). The experiment is described as follows: cross-linking.

The substance “10×Histidine-tagged amino acids 1-416 of potato virus X RNA-dependent RNA polymerase, 10×His-MET_(1-416) (domain or fragment)” came in with a stoichiometry N of more than 5.

The stoichiometry N is the number of molecules, sites or subunits per partner or assembly.
